Target: telomerase of HT1080 cells (telomerase-containing fraction, or cellular telomerase in stable HT1080 lines) (human) (UniProt O14746)
Experiment: cell-based or functional assay

telomerase of HT1080 cells (telomerase-containing fraction, or cellular telomerase in stable HT1080 lines) (human), sequence (O14746 whole entry): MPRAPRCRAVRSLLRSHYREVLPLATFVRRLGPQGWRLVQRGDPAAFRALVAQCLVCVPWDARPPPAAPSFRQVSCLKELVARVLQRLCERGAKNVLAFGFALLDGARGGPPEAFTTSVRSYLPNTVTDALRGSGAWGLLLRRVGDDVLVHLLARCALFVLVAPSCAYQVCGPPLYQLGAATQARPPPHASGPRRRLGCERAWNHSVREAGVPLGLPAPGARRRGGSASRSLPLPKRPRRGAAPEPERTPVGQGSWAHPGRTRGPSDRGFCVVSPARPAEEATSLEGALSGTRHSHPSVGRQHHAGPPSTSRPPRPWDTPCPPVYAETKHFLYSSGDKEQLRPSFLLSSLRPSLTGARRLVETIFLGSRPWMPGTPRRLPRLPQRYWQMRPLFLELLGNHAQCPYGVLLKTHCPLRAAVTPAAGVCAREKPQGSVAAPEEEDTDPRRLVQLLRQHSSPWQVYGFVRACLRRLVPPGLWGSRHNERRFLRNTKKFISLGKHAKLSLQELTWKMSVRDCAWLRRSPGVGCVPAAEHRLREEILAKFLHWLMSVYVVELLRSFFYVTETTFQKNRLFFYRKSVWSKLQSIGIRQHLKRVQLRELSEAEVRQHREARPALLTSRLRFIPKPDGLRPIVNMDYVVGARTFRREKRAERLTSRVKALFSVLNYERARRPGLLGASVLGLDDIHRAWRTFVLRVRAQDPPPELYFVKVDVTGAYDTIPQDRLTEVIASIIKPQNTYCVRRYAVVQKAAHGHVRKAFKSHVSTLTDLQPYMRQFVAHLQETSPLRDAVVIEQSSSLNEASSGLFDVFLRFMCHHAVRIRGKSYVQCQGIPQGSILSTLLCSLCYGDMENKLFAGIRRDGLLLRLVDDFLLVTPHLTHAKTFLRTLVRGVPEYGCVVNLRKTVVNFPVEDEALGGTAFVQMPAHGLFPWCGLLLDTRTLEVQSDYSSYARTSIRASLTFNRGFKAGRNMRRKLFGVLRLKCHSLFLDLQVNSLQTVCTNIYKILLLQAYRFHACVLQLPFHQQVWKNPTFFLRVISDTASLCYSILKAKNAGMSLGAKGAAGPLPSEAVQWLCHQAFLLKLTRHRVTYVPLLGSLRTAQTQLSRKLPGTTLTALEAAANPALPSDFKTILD

His-PinX1 (N-terminal His fusion of PinX1, pET28a) (from UniProt Q96BK5 1-328)
IC50 of inhibition of telomerase activity in vitro (TRAP assay): 25 nM

— US20040142357A1
